Target: T1, NKSF larger subunit, 40 kD (human, UniProt P29460 23-328)
T1 construct: also called 40 kD subunit; NKSF heavy chain
T1 sequence: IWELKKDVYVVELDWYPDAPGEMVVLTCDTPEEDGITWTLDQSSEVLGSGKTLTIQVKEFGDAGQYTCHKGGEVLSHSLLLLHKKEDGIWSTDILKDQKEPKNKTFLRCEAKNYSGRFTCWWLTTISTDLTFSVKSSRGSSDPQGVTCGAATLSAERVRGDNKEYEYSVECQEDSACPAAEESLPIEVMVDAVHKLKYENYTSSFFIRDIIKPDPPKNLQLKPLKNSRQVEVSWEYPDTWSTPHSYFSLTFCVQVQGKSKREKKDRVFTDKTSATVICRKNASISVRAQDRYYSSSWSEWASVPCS
Experiment: SDS-PAGE of the iodinated 70 kD species, non-reduced against reduced with β-mercaptoethanol
Description: SDS-PAGE was performed according to the method of Laemmli [Laemmli, U. K., *Nature*, 227:680–685 (1970)] on 10% acrylamide slab gels (0.75 mm thickness). After electrophoresis the gels were either stained by the silver-nitrate method using a silver staining reagents [BioRad] or cut into 2 mm slices and eluted in 0.5 ml RPMI medium for 4 hours at 24° C. and assayed for NKSF activity. Apparent molecular weight was determined with protein standards, […] (94 kD), bovine serum albumin (67 kD), ovalbumin (43 kD), carbonic anhydrase (30 kD), soybean trypsin inhibitor (20 kD) and lactalbumin (14.4 kD).
The 70 kD species was eluted from the gel, iodinated using chloramine T [Sigma, St. Louis, Mo.] and rerun on a second SDS gel after boiling for two minutes in the presence of the reducing agent, β-mercaptoethanol (10%). […] Alternatively, NKSF may be a dimer formed by multiples of the larger or smaller subunits. The reduction of the native 70 kD NKSF appeared to destroy all of its ability to induce peripheral blood lymphocyte production of gamma interferon.

binding result: binds
B1: NKSF smaller subunit, 30-35 kD (other)
chain: RNLPVATPDPGMFPCLHHSQNLLRAVSNMLQKARQTLEFYPCTSEEIDHEDITKDKTSTVEACLPLELTKNESCLNSRETSFITNGSCLASRKTSFMMALCLSSIYEDLKMYQVEFKTMNAKLLMDPKRQIFLDQNMLAVIDELMQALNFNSETVPQKSSLEEPDFYKTKIKLCILLHAFRIRAVTIDRVMSYLNAS
notes: also called 30 kD subunit; 30 kD (smaller version)
